# Experimental data taken from patent publication WO2005003174A1 (dated 2005).
# Molecular target: T1, fusion protein consisting of soluble CD64 linked to the Fc portion of human IgM (human, UniProt P12314 16-292; P01871 106-453, limits assumed)
# T1 construct: domain: soluble CD64;domain: Fc portion; Used as a supernatant and detected with alkaline phosphatase labelled goat anti-human IgM; also called soluble CD64-IgM fusion protein
# Test: bispecific ELISA: PsaA coated, detection with soluble CD64-IgM fusion and anti-human IgM
# T1 sequence (P12314 other isoform, or with tags, fused parts or gaps limits assumed): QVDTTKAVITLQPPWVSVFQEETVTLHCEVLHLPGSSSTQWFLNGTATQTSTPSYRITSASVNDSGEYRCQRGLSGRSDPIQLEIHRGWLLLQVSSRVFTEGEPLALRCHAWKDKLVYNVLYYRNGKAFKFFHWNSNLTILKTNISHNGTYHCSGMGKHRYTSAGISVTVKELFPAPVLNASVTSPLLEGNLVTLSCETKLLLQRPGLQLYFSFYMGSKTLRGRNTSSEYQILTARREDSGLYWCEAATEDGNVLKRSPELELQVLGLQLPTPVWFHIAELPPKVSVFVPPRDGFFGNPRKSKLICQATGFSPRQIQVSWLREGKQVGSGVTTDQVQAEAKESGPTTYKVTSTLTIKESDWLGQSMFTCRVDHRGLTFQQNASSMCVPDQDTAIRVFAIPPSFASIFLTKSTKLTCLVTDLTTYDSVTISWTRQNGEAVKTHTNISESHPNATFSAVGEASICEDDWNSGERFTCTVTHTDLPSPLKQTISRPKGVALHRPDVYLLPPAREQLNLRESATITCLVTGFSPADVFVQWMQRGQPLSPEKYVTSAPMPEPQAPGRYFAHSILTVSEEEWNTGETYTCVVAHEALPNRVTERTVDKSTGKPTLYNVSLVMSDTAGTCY
binder,measurement,value
"F(ab')2 fragment of the anti-PsaA Ab 5-9A7 (antibody, V domains shown, F(ab')2 fragment made by pepsin digestion of the human antibody 5-9A7; also called anti-PsaA F(ab')2) VH: EVQLVESGGGLVQPGGSLRLSCAASGFTFSSFWMSWVRQAPGKGLEWVANIKQDGSEKFYVDSVKGRFTISRDNAKNSLYLQMNSLRAEDTAVYYCARDRITMVRPYYYFYNGLDVWGQGTTVTVSS VL: EIVLTQSPATLSLSPGERATLSCRASQSVSSYLAWYQQKPGQAPRLLIYDASNRATGIPARFSGSGSGTDFTLTISSLEPEDFAVYYCQQRSNWPPFTFGPGTKVDIK",binding result,no binding
